{"source": "patent US20100015664A1", "proteins": {"B1": {"name": "Protease of the present invention, purified from the culture of Aureobacterium sp. MIM-CG-9535-I (FERM P-15326) (protein)", "chain": "LIVNTVNSIDDKWSDAQASALTYCVSTAFGARHADVVSAMESGAALWEAASSKIDFIYDSSADANCTTRNNAVLFSVEPVQTTQYIARAFFPSTAPRLQNVLIDDSIWTPGSSWTPTNVLGHELGHVLGFRHEHTRPEAGTCFEDDNWRPLTPYDSSSIMHYPQCNGSSADLSMTSVDTDGVVALYGN"}}, "key": {"[1]": {"target": "T1, Fluorescence-labeled synthetic peptide AG FAGP (not fully specified)", "T1 chain": "AGFAGP"}, "[2]": {"target": "T2, Fluorescence-labeled synthetic peptide G FAGP (not fully specified)", "T2 chain": "GFAGP"}, "[3]": {"target": "T3, Fluorescence-labeled synthetic peptide GPAG FAG (not fully specified)", "T3 chain": "GPAGFAG"}, "[4]": {"target": "T4, Fluorescence-labeled synthetic peptide GPAG FA (not fully specified)", "T4 chain": "GPAGFA"}, "[5]": {"target": "T5, Fluorescence-labeled synthetic peptide GPAG F (not fully specified)", "T5 chain": "GPAGF"}, "[6]": {"target": "T6, Fluorescence-labeled synthetic peptide PAG FAGP (not fully specified)", "T6 chain": "PAGFAGP"}, "[7]": {"target": "T7, Fluorescence-labeled synthetic peptide of Pro-Gln-Gly-Ile-Ala-Gly-Gln (not fully specified)", "T7 chain": "PQGIAGQ"}, "[8]": {"target": "T8, Nma-Gly-Pro-Ala-Gly-Phe-Ala-Gly-Pro-Lys-(DNP)r-NH2 (not fully specified)", "T8 chain": "GPAGFAGPK"}, "[9]": {"target": "T9, Nma-Gly-Pro-Gln-Gly-Phe-Gln-Gly-Pro-Lys-(DNP)r-NH2 (not fully specified)", "T9 chain": "GPQGFQGPK"}, "[10]": {"target": "T10, Nma-Thr-Gln-Ser-Leu-Val-Thr-Pro-Lys-(DNP)r-NH2 (not fully specified)", "T10 chain": "TQSLVTPK"}}}
{"protein": "B1", "values": [{"measurement": "Present or Absent of Specific degradation activity", "setting": "[1]", "result": "Absent"}, {"measurement": "Present or Absent of Specific degradation activity", "setting": "[2]", "result": "Absent"}, {"measurement": "Present or Absent of Specific degradation activity", "setting": "[3]", "result": "Absent"}, {"measurement": "Present or Absent of Specific degradation activity", "setting": "[4]", "result": "Absent"}, {"measurement": "Present or Absent of Specific degradation activity", "setting": "[5]", "result": "Absent"}, {"measurement": "Present or Absent of Specific degradation activity", "setting": "[6]", "result": "Present"}, {"measurement": "Protease cutting activity (degradation of synthetic substrate)", "setting": "[7]", "result": "(X) Does not degrade"}, {"measurement": "Present or Absent of Specific degradation activity", "setting": "[8]", "result": "Present"}, {"measurement": "Protease cutting activity (degradation of synthetic substrate)", "setting": "[8]", "result": "(◯) Degrades"}, {"measurement": "Protease cutting activity (degradation of synthetic substrate)", "setting": "[9]", "result": "(◯) Degrades"}, {"measurement": "Protease cutting activity (degradation of synthetic substrate)", "setting": "[10]", "result": "(◯) Degrades"}]}
